Source: patent publication EP2270053A1 (U3 Pharma GmbH, dated 2011)

T1: human receptor tyrosine kinase AXL (human, UniProt P30530 26-894)
T1 construct: also called hAXL; human AXL on NIH3T3-AXL cl.7, Ratl-AXL cl.2, Hs578T, NCI-H292 and CaSki cells
T1 sequence: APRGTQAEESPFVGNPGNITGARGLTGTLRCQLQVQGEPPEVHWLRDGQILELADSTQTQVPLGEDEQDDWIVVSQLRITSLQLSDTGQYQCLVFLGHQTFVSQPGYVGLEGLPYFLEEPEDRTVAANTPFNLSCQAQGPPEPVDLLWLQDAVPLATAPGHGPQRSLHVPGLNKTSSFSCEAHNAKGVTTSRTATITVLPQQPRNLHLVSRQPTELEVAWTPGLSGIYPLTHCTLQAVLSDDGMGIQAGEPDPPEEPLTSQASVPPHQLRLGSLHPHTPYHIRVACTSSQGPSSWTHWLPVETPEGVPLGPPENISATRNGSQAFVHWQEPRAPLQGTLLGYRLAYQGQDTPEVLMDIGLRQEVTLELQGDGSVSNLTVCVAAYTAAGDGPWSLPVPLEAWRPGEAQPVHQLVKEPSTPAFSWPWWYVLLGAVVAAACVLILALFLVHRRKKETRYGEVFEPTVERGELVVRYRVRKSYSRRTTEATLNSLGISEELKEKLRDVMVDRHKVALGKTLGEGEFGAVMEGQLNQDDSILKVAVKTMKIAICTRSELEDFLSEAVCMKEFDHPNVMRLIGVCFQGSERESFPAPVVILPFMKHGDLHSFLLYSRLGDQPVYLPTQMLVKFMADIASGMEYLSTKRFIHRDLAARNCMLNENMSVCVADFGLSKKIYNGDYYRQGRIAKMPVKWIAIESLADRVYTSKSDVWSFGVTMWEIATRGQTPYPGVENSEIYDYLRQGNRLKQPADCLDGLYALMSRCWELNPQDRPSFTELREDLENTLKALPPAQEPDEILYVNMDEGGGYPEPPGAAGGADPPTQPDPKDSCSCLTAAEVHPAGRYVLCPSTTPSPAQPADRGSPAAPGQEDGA

B1: rat anti-human AXL monoclonal antibody #11B7 (antibody, rat IgG1, V domains shown)
VH: EVQLQESGPGLVKPSQSLSLTCSVTGYSITSNYWGWIRKFPGDKMEWMGYITYSGSTSYNPSLKSRISITRDTSKNQFFLQLNSVTSEDTATYYCAITTFYYWGQGVMVTVSS
VL: DIQMTQAPSSLPASLGDRVTITCRASQDIGNYLRWFQQKPGKSPRLMISGATNLAAGVPSRFSGSRSGSDYSLTISSLESEDMADYYCLQSKESPWTFGGGTKLELKR
notes: also called I11B7; rat anti-Axl antibody 11B7
B2: chimeric anti-AXL antibody ch11B7-IgG1 (antibody, V domains shown)
VH: B1 VH
VL: B1 VL
notes: Rat 11B7 variable domains on human IgG1 / human kappa; also called chm11B7; chimeric anti-AXL mAb #11B7
B3: rat anti-human AXL monoclonal antibody #11D5 (antibody, rat IgG2a, V domains shown)
VH: EVQLQESGPGLVKPSQSLSLTCSVTGYSITSNYWGWIRKFPGNKMEWIGHITNSGNTTYNPSLKSRISISRDTSRNQFFLQLNSVTTEDTATYYCAKGAFDYWGQGVMVTVSS
VL: DIQMTQSPSSMSTSLGDRVTITCRASQDIGNYLSWFQQKVGKSPRRMIYGAIKLAVGVPSRFSGSRSGSDYSLTISSLESEDMAIYYCLQYIQFPLTFGSGTKLELKR
notes: also called III11D5
B4: chimeric anti-AXL antibody ch11D5-IgG1 (antibody, V domains shown)
VH: B3 VH
VL: B3 VL
notes: also called chm11D5; human chimeric antibody (of #11D5)

What follows are binders tested against T1, human receptor tyrosine kinase AXL (assay: FACS Scatchard, apparent KD (KDapp) on NIH3T3 cells overexpressing human AXL).

Kd	Binder
0.38 nM	B1
0.6 nM	B2
0.81 nM	B3
0.4 nM	B4
